T1: Fas receptor on Jurkat or HT-29 cells (human, UniProt P25445 26-335)
T1 sequence (looked up): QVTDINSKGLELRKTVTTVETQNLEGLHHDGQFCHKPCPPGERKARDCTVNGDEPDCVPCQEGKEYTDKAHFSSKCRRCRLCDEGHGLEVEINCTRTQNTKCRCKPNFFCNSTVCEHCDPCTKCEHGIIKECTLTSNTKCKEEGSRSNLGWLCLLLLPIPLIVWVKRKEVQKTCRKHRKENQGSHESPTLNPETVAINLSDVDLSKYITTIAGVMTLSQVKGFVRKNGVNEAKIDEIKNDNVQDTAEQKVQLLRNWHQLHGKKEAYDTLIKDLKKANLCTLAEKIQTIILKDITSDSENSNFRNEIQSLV

T2: full length TNF-gamma-beta on the cell surface of transfected cells (human, UniProt O95150 1-251)
T2 construct: whole, on cells; also called TNF-gamma-beta expressing cells
T2 sequence (looked up): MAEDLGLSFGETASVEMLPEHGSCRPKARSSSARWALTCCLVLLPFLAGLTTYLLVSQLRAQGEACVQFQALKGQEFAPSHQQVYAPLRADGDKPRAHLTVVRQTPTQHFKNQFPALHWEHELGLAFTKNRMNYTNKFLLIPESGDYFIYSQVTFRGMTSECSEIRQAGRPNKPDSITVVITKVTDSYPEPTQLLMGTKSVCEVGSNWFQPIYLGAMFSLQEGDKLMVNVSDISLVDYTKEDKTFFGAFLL

T3: TNFR6 alpha-Fc (full length TNFR-6 alpha, amino acids 1-300 of SEQ ID NO:2, fused to an Fc domain) (human, UniProt O95407 30-300)
T3 construct: Cloned as aa 1-300; disulfide-linked dimer; also called TR6-Fc; TNFR6-Fc; not shown: Fc domain of human IgG1
T3 sequence: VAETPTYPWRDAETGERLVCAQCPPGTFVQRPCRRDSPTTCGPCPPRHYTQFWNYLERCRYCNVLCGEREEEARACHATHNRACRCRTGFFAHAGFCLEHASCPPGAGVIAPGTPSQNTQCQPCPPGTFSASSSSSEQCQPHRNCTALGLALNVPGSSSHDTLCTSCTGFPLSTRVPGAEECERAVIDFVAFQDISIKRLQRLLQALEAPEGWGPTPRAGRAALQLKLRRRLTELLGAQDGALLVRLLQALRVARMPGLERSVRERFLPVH

T4: FLAG-tagged soluble TNF-gamma-beta (aa 72-251) (human, UniProt O95150 72-251)
T4 construct: also called FLAG-TNF-gamma-beta; FLAG-TL1β
T4 sequence: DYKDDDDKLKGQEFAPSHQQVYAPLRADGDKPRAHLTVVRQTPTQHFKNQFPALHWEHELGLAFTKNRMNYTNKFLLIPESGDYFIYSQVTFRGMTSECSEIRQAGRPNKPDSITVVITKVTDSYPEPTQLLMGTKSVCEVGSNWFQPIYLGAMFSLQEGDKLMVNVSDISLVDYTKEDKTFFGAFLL

B1: Full-length human TR6 (without Fc) (receptor)
chain: T3 sequence
notes: also called TR6-non-Fc; TR6 non-Fc
B2: Soluble human FLAG-FasL (synthesized at HGS) (ligand)
chain: DYKDDDDKQIGHPSPPPEKKELRKVAHLTGKSNSRSMPLEWEDTYGIVLLSGVKYKKGGLVINETGLYFVYSKVYFRGQSCNNLPLSHKVYMRNSKYPQDLVMMEGKMMSYCTTGQMWARSSYLGAVFNLTSADHLYVNVSELSLVNFEESQTFFGLYKL
notes: Called trimerized in the BIAcore experiment; cross-linked with anti-FLAG antibody in the cell assays; also called FasL-Flag; trimerized FLAG-FasL
B3: BCMA on transiently transfected cells (receptor, UniProt Q02223 1-184, looked up)
chain: MLQMAGQCSQNEYFDSLLHACIPCQLRCSSNTPPLTCQRYCNASVTNSVKGTNAILWTCLGLSLIISLAVFVLMFLLRKINSEPLKDEFKNTGSGLLGMANIDLEKSRTGDEIILPRGLEYTVEECTCEDCIKSKPKVDSDHCFPLPAMEEGATILVTTKTNDYCKSLPAALSATEIEKSISAR
notes: whole, on cells
B4: TR2-Fc (extracellular domain of TR2, aa 1-192, fused to the Fc domain of human IgG1) (Fc fusion)
chain: LPSCKEDEYPVGSECCPKCSPGYRVKEACGELTGTVCEPCPPGTYIAHLNGLSKCLQCQMCDPAMGLRASRNCSRTENAVCGCSPGHFCIVQDGDHCAACRAYATSSPGQRVQKGGTESQDTLCQNCPPGTFSPNGTLEECQHQTKCSWLVTKA
notes: The range is as cloned; also called HveA-Fc; HveA; not shown: Fc domain of human IgG1

Legend:
[1] = molecular target: T1, Fas receptor on Jurkat or HT-29 cells; test: cell-based or functional assay
[2] = molecular target: T2, full length TNF-gamma-beta on the cell …; test: flow cytometry competition; competitor DR3-Fc
Description: (§1) One million cells, in 0.1 ml of FACS buffer (PBS, 0.1% BSA, 0.1% NaN₃), were incubated with 0.1-1 microgram of protein or antibody at RT for 15 min. The cells were washed with 3 ml of FACS buffer, reacted with biotinylated primary antibody, and stained with PE-conjugated secondary antibody at RT for 15 min. Cells were then washed again, resuspended in 0.5 microgram/ml of propidium iodide, and live cells were gated and analyzed on a FACScan using the CellQuest software (BD Biosciences).

[3] = molecular target: B1; test: BIAcore, FasL-Flag soluble
[4] = molecular target: T3, TNFR6 alpha-Fc (full length TNFR-6 …); test: BIAcore, TR6-Fc immobilized, trimerized FLAG-FasL soluble
[5] = molecular target: T4, FLAG-tagged soluble TNF-gamma-beta (aa …); test: flow cytometry on transiently transfected cells
Description: as §1

[6] = molecular target: T2, full length TNF-gamma-beta on the cell …; test: flow cytometry, receptor-Fc on HEK293F cells expressing full length TNF-gamma-beta
Description: as §1

**Q.** Which % Cells undergoing apoptosis (annexin/propidium iodide FACS, Jurkat cells), FasL (20 ng) alone (% cells undergoing apoptosis) [1] does the source give for “sFas ligand (Alexis Corporation) with a FLAG epitope tag at its N-terminus (from UniProt P48023 103-281)” here?
**A.** 8.87

**Q.** What about the Jurkat cell viability (ALOMAR blue, OD 570 nm-630 nm) (% decrease in cell viability) [1] of the same molecule?
**A.** 50

**Q.** How did the “molar ratio of TR6 to DR3-Fc at which no DR3-Fc binding was detected” value [2] turn out when B1 was run?
**A.** 2 molar ratio (2:1)

**Q.** For B2, which “Jurkat apoptosis (annexin staining, FACS)” value [1] is on record?
**A.** ~7 fold

**Q.** And the Kd [3]?
**A.** 17 nM

**Q.** And the Kd [4]?
**A.** 4.6 nM

**Q.** Does B3 bind [5]?
**A.** no binding

**Q.** Does B4 bind [6]?
**A.** no binding

Source: patent publication US20090226456A1 (published 2009)
